Assay [1] addresses Gαi1-V185F single mutant (human) (UniProt P63096).
For assay [2], the target named is Gαi1-V185F/H213Q double mutant (human) (UniProt P63096).
Assay [3] deals with Gαi1-H213Q single mutant (human) (UniProt P63096).
Assay [4] addresses Gαs-F208V/D229S/Q236H triple mutant (human) (UniProt P63092).
The target of assay [5] is Gαs-D229S single mutant (human) (UniProt P63092).

In assay [1], “RGS domain of human RGS16 (residue 86–205) (domain or fragment)” came in with an EC50 of RGS16 GAP activity (dose response) towards Gαi1-V185F of 4 nM. In assay [2], this substance registered an EC50 of RGS16 GAP activity (dose response) towards Gαi1-V185F/H213Q of 45 nM. The substance also had an EC50 of RGS16 GAP activity (dose response) towards Gαi1-H213Q in assay [3] of 7 nM. For the same substance, the EC50 of RGS16 GAP activity (dose response) towards Gαs-F208V/D229S/Q236H in assay [4] was 9 nM. In addition, in assay [5], the EC50 of RGS16 GAP activity (dose response) towards Gαs-D229S was determined as 800 nM.
